Results from patent publication US20230212239A1, “INHIBITORS OF CBL AUTOINHIBITION AND RELATED METHODS” (THE HOSPITAL FOR SICK CHILDREN, priority 2020, published 2023).
“Also recorded” adds a separate entry of the source.

Tests used:
[1] = target: T1, CBL TKBD-LHR-RING (2-436), unphosphorylated (Homo sapiens, UniProt P22681); test: In vitro ubiquitination assay, anti-ubiquitin immunoblot; assay type: biochemical; conditions: added to unphosphorylated CBL; 20 pmol CBL, 60 pmol SLAP2/pSLAP2
T1 construct: GST (N, cleaved yes); made in house; host or cells: E. coli BL-21
T1 sequence (P22681 2-436): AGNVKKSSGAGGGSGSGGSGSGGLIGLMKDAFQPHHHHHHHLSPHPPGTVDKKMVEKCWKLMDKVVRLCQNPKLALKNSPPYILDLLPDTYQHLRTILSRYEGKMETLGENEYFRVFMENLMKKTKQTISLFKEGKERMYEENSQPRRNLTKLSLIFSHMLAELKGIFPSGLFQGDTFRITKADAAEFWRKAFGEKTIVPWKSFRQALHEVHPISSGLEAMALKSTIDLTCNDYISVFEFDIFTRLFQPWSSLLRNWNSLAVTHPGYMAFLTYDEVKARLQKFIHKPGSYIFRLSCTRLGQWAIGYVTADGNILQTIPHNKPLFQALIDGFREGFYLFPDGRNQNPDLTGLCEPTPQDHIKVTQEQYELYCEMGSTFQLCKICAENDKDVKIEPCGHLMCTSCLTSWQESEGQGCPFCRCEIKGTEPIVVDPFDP
Description: Given that binding of SLAP2 and the LHR-RING would be mutually exclusive (FIG. 8C), we reasoned that binding of SLAP2 to CBL could displace the LHR-RING, thereby promoting the catalytically competent conformation. To test this hypothesis, an in vitro ubiquitination assay in which E3 ligase activity is detected by a smear at high molecular weight on an anti-ubiquitin (Ub) immunoblot was employed. […] To further compare and quantify CBL ubiquitin ligase activity, a chemiluminescence based assay which measures the total amount of polyubiquitylated products formed in an in vitro reaction was used. In this assay, production of polyubiquitylated proteins increased upon addition of SLAP2 or pSLAP2 to CBL, compared to CBL alone (FIG. 9C and FIG. 10A).
In vitro ubiquitination reactions were prepared with 20 pmol of CBL or pCBL and 60 pmol of hSLAP2 or phosphorylated hSLAP2 (pSLAP2) for both WT and mutants. Reagents were thawed and reactions prepared on ice. CBL and SLAP2 were mixed in PBS (with 5 mM βME, 5 mM caproic acid, 0.5 mM PMSF, and 0.5 mM Na3VO4) at rt for 5-10 min before addition of master mix (42 pmol E1 (UBE1, Boston Biochem or Ubiquitin-Proteasome Biotechnologies), 0.1 µmol E2 (UbcH5b/UBE2D2, Boston Biochem #E2-622), […], and 11.6 µmol ubiquitin (Boston Biochem #U-100H) in reaction buffer (0.2 M Tris pH 7.5, 10 mM MgCl2, 2 mM DTT). Reactions were incubated at 30° C. shaking at 500-700 rpm for 60-110 minutes and terminated by addition of SDS 2X loading buffer and boiling for 5-10 minutes. Equal volumes of each reaction were loaded on 12.5% SDS-PAGE gel, transferred to PVDF membrane, and immunoblotted for ubiquitin as per standard protocols (anti-ubiquitin antibody P4G7, BioLegend #838701, 1:1000; anti-mouse IgG HRP-linked antibody, Cell Signaling Technology #7076, 1:10000; Western Lightning Plus ECL, Perkin Elmer).

CBL TKBD = target: T2, CBL TKBD (Homo sapiens, UniProt P22681); test: Co-purification of CBL TKBD with Trx-His-SLAP2/SLAP (Duet co-expression, Ni-NTA, SDS-PAGE); assay type: binding
T2 construct: with CBL (47-357) cloned in frame into MCS2 of the same pETDuet-1 vector; made in house
T2 sequence (P22681 47-357): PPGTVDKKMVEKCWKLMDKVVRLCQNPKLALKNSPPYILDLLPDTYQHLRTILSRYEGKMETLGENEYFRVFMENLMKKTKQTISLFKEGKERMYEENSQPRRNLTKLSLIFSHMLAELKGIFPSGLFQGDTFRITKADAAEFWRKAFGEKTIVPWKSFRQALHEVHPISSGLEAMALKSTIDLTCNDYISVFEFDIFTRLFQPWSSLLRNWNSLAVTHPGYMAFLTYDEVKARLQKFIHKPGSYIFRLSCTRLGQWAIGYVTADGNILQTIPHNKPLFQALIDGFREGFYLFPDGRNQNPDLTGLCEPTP
Description: To validate the CBL/SLAP2 binding interface, a series of mutants in a Duet co-expression vector system was generated for co-purification trials. The SLAP2 sequence was preceded by thioredoxin (Trx) and His-tag fusion proteins to allow co-purification of CBL TKBD that was bound to Trx-His-SLAP2 during the initial affinity chromatography purification step. Surface residues deemed to be important to the CBL/SLAP2 interface, but not CBL function or folding, were mutated to disrupt CBL/SLAP2 binding (FIG. 5C and FIG. 6). In our structure, SLAP2 Gly240 locates close to CBL Met269 and Ala270, such that mutation to a bulky Arg residue (G240R) could cause sterical constraints. Similarly, SLAP2 Leu241 is situated in a hydrophobic cleft composed of CBL Ala223, Trp258, and Val263; mutation to Arg (L241R) was predicted to disturb this binding pocket. Mutation of CBL Ala223 to Arg (A223R) would likewise disrupt this pocket, with CBL/SLAP2 double mutant A223R/L241R predicted to drastically disturb binding through sterical constraints and charge repulsion. (For clarity, CBL mutations herein are indicated in italics, SLAP2 in regular font.) Similarly, single or double mutation of CBL Ser226 or SLAP2 Ser244, whose side chain hydroxyl groups are in close proximity to one another, to charged Glu residues (S226E and S244E) was anticipated to interfere with CBL/SLAP2 binding. Finally, given that SLAP2 binds CBL as an α-helix, mutation of Leu245, located in the center of this α-helix, to proline (L245P) was expected to interrupt the helical structure and thus prevent SLAP2 binding. […] However, double mutation of the CBL/SLAP2 interface (A223R/L241R and S226E/S244E; FIG. 5D, lower panel) was not tolerated, even at low salt concentration.
For co-purification of CBL and SLAP2/SLAP, Duet-His-hSLAP2-CBL 29-261 Δ198-229 and 29-254 Δ198-229, Duet-His-Δlinker-hSLAP2-CBL WT and point mutants, and Duet-His-mSLAP-CBL WT and point mutants were overexpressed in E. coli BL-21 as above or TKB1 competent cells (Stratagene) as per manufacturer’s instructions, and cells harvested as above (except 100 mL of LB, overnight at 16-18° C., and 0.35-0.5 mM IPTG induction). Cell pellets were resuspended in either high or low salt (as for high salt except 25 mM HEPEs pH 7.5, 150 mM NaCl) lysis buffer and purified as above on Ni-NTA agarose (Qiagen) with wash buffer (25 mM HEPEs pH 7.5, 150 mM NaCl, 2% glycerol, 20 mM imidazole, 10 mM βME). Bead slurry was mixed with SDS 2X loading buffer (125 mM Tris pH 6.8, 4% SDS, 20% glycerol, 0.715 M βME, bromophenol blue), boiled, and analyzed by 10 or 12.5% SDS-PAGE, stained with Coomassie blue.

B1: Trx-His(6)-Δlinker-hSLAP2 (human SLAP2 29-261) (other)
chain: EAERSKATAVALGSFPAGGPAELSLRLGEPLTIVSEDGDWWTVLSEVSGREYNIPSVHVAKVSHGWLYEGLSREKAEELLLLPGNPGGAFLIRESQTRRGSYSLSVRLSRPASWDRIRHYRIHCLDNGWLYISPRLTFPSLQALVDHYSELADDICCLLKEPCVLQRAGPLPGKDIPLPVTVQRTPLNWKELDSSLLFSEAATGEESLLSEGLRESLSFYISLNDEAVSLDDA
notes: also called Trx-His-SLAP2; SLAP2 WT; not shown: N-terminal thioredoxin (Trx)-His(6)-TEV-site tag and linker of the modified pET32a (Δlinker version)
[1]
  CBL ubiquitination activity (anti-Ub immunoblot): stimulated CBL ubiquitination activity
CBL TKBD; high salt conditions (0.5 M NaCl)
  CBL TKBD co-purification: co-purified

B2: pSLAP2: tyrosine phosphorylated SLAP2 expressed in TKB1 cells (protein, UniProt Q9H6Q3 2-261, looked up)
Src-like-adapter 2: GSLPSRRKSLPSPSLSSSVQGQGPVTMEAERSKATAVALGSFPAGGPAELSLRLGEPLTIVSEDGDWWTVLSEVSGREYNIPSVHVAKVSHGWLYEGLSREKAEELLLLPGNPGGAFLIRESQTRRGSYSLSVRLSRPASWDRIRHYRIHCLDNGWLYISPRLTFPSLQALVDHYSELADDICCLLKEPCVLQRAGPLPGKDIPLPVTVQRTPLNWKELDSSLLFSEAATGEESLLSEGLRESLSFYISLNDEAVSLDDA
modifications: tyrosine phosphorylated
notes: tyrosine phosphorylated SLAP2 expressed in TKB1 cells
[1]
  CBL ubiquitination activity (anti-Ub immunoblot): stimulated CBL ubiquitination activity; also recorded: promote CBL ubiquitination activity to a greater extent than the addition of SLAP2
CBL TKBD; conditions where SLAP2 was tyrosine phosphorylated (TKB1), low salt
  CBL TKBD co-purification: co-purified
